# Data from the Human Domainome abundance scans (Beltran et al. 2025).
# ± gives the uncertainty stated by the source.
# B1: Zinc finger MYM-type protein 6, residues 427 to 504; numbered along this chain, O95789 (parent)
# chain: KLKCQHCNHLFATKPELLFYKGKMFLFCGKNCSDEYKKKNKVVAMCDYCKLQKIIKETVRFSGVDKPFCSEVCKFLSA
# Variants of: B1
# Assay: abundance fitness (aPCA) (normalised: wild type 0, dead -1); higher = more abundant; growth selection in yeast, the domain comes from the species named
# Conditions: Homo sapiens
row,Variant,abundance fitness
1,KLKCQHCNHLFATKPELLFYKGKMFLFCGKNCSDEYKKKNKVVAMCDYCKLQKIIKETVRFSAVDKPFCSEVCKFLSA [G63A],-0.495 ± 0.16
2,KLKCQHCNHLFATKPELLFYKGKMFLFCGKNCSDEYKKKNKVVAMCDYCKLQKIIKETVRFSCVDKPFCSEVCKFLSA [G63C],-0.709 ± 0.23
3,KLKCQHCNHLFATKPELLFYKGKMFLFCGKNCSDEYKKKNKVVAMCDYCKLQKIIKETVRFSDVDKPFCSEVCKFLSA [G63D],0.098 ± 0.14
4,KLKCQHCNHLFATKPELLFYKGKMFLFCGKNCSDEYKKKNKVVAMCDYCKLQKIIKETVRFSEVDKPFCSEVCKFLSA [G63E],-0.502 ± 0.17
5,KLKCQHCNHLFATKPELLFYKGKMFLFCGKNCSDEYKKKNKVVAMCDYCKLQKIIKETVRFSFVDKPFCSEVCKFLSA [G63F],-0.179 ± 0.47
6,KLKCQHCNHLFATKPELLFYKGKMFLFCGKNCSDEYKKKNKVVAMCDYCKLQKIIKETVRFSLVDKPFCSEVCKFLSA [G63L],-0.315 ± 0.097
7,KLKCQHCNHLFATKPELLFYKGKMFLFCGKNCSDEYKKKNKVVAMCDYCKLQKIIKETVRFSPVDKPFCSEVCKFLSA [G63P],-0.201 ± 0.31
8,KLKCQHCNHLFATKPELLFYKGKMFLFCGKNCSDEYKKKNKVVAMCDYCKLQKIIKETVRFSQVDKPFCSEVCKFLSA [G63Q],-0.191 ± 0.18
9,KLKCQHCNHLFATKPELLFYKGKMFLFCGKNCSDEYKKKNKVVAMCDYCKLQKIIKETVRFSRVDKPFCSEVCKFLSA [G63R],-0.554 ± 0.13
10,KLKCQHCNHLFATKPELLFYKGKMFLFCGKNCSDEYKKKNKVVAMCDYCKLQKIIKETVRFSSVDKPFCSEVCKFLSA [G63S],-0.53 ± 0.23
11,KLKCQHCNHLFATKPELLFYKGKMFLFCGKNCSDEYKKKNKVVAMCDYCKLQKIIKETVRFSTVDKPFCSEVCKFLSA [G63T],-0.226 ± 0.16
12,KLKCQHCNHLFATKPELLFYKGKMFLFCGKNCSDEYKKKNKVVAMCDYCKLQKIIKETVRFSVVDKPFCSEVCKFLSA [G63V],-0.713 ± 0.2
13,KLKCQHCNHLFATKPELLFYKGKMFLFCGKNCSDEYKKKNKVVAMCDYCKLQKIIKETVRFSWVDKPFCSEVCKFLSA [G63W],-0.486 ± 0.18
14,KLKCQHCNHLFATKPELLFYKGKMFLFCGKNCSDEYKKKNKVVAMCDYCKLQKIIKETVRFSGADKPFCSEVCKFLSA [V64A],-0.302 ± 0.13
15,KLKCQHCNHLFATKPELLFYKGKMFLFCGKNCSDEYKKKNKVVAMCDYCKLQKIIKETVRFSGCDKPFCSEVCKFLSA [V64C],-0.432 ± 0.15
16,KLKCQHCNHLFATKPELLFYKGKMFLFCGKNCSDEYKKKNKVVAMCDYCKLQKIIKETVRFSGDDKPFCSEVCKFLSA [V64D],0.474 ± 0.25
17,KLKCQHCNHLFATKPELLFYKGKMFLFCGKNCSDEYKKKNKVVAMCDYCKLQKIIKETVRFSGEDKPFCSEVCKFLSA [V64E],0.09 ± 0.1
18,KLKCQHCNHLFATKPELLFYKGKMFLFCGKNCSDEYKKKNKVVAMCDYCKLQKIIKETVRFSGFDKPFCSEVCKFLSA [V64F],-0.448 ± 0.4

row,Variant,abundance fitness
1,KLKCQHCNHLFATKPELLFYKGKMFLFCGKNCSDEYKKKNKVVAMCDYCKLQKIIKETVRFSGGDKPFCSEVCKFLSA [V64G],0.046 ± 0.063
2,KLKCQHCNHLFATKPELLFYKGKMFLFCGKNCSDEYKKKNKVVAMCDYCKLQKIIKETVRFSGIDKPFCSEVCKFLSA [V64I],0.365 ± 0.2
3,KLKCQHCNHLFATKPELLFYKGKMFLFCGKNCSDEYKKKNKVVAMCDYCKLQKIIKETVRFSGKDKPFCSEVCKFLSA [V64K],-0.298 ± 0.24
4,KLKCQHCNHLFATKPELLFYKGKMFLFCGKNCSDEYKKKNKVVAMCDYCKLQKIIKETVRFSGMDKPFCSEVCKFLSA [V64M],0.606 ± 0.095
5,KLKCQHCNHLFATKPELLFYKGKMFLFCGKNCSDEYKKKNKVVAMCDYCKLQKIIKETVRFSGQDKPFCSEVCKFLSA [V64Q],-0.009 ± 0.11
6,KLKCQHCNHLFATKPELLFYKGKMFLFCGKNCSDEYKKKNKVVAMCDYCKLQKIIKETVRFSGRDKPFCSEVCKFLSA [V64R],0.058 ± 0.086
7,KLKCQHCNHLFATKPELLFYKGKMFLFCGKNCSDEYKKKNKVVAMCDYCKLQKIIKETVRFSGSDKPFCSEVCKFLSA [V64S],-0.107 ± 0.1
8,KLKCQHCNHLFATKPELLFYKGKMFLFCGKNCSDEYKKKNKVVAMCDYCKLQKIIKETVRFSGTDKPFCSEVCKFLSA [V64T],0.037 ± 0.18
9,KLKCQHCNHLFATKPELLFYKGKMFLFCGKNCSDEYKKKNKVVAMCDYCKLQKIIKETVRFSGWDKPFCSEVCKFLSA [V64W],-0.765 ± 0.18
10,KLKCQHCNHLFATKPELLFYKGKMFLFCGKNCSDEYKKKNKVVAMCDYCKLQKIIKETVRFSGYDKPFCSEVCKFLSA [V64Y],0.387 ± 0.21
11,KLKCQHCNHLFATKPELLFYKGKMFLFCGKNCSDEYKKKNKVVAMCDYCKLQKIIKETVRFSGVAKPFCSEVCKFLSA [D65A],-0.226 ± 0.12
12,KLKCQHCNHLFATKPELLFYKGKMFLFCGKNCSDEYKKKNKVVAMCDYCKLQKIIKETVRFSGVCKPFCSEVCKFLSA [D65C],-0.284 ± 0.4
13,KLKCQHCNHLFATKPELLFYKGKMFLFCGKNCSDEYKKKNKVVAMCDYCKLQKIIKETVRFSGVEKPFCSEVCKFLSA [D65E],0.142 ± 0.11
14,KLKCQHCNHLFATKPELLFYKGKMFLFCGKNCSDEYKKKNKVVAMCDYCKLQKIIKETVRFSGVFKPFCSEVCKFLSA [D65F],-0.598 ± 0.2
15,KLKCQHCNHLFATKPELLFYKGKMFLFCGKNCSDEYKKKNKVVAMCDYCKLQKIIKETVRFSGVGKPFCSEVCKFLSA [D65G],-0.488 ± 0.1
16,KLKCQHCNHLFATKPELLFYKGKMFLFCGKNCSDEYKKKNKVVAMCDYCKLQKIIKETVRFSGVIKPFCSEVCKFLSA [D65I],-0.666 ± 0.3
17,KLKCQHCNHLFATKPELLFYKGKMFLFCGKNCSDEYKKKNKVVAMCDYCKLQKIIKETVRFSGVLKPFCSEVCKFLSA [D65L],-0.105 ± 0.099
